Values of other authors, collected in US10159715B2, “Method for treating diabetes comprising long-acting insulin analogue conjugate and long-acting insulinotropic peptide conjugate” (HANMI PHARM. CO., LTD., priority 2014, dated 2018).

Key:
[1] = in vivo
[2] = system: type 2 diabetes-induced rodent model

## GLP-1: incretin hormone secreted by L-cells of the ileum and colon; insulinotropic peptide
[1]
  half-life in blood: less than 2 minutes
[2]
  growth and differentiation of the beta cells / beta cell mass: increasing the beta cell mass
